Percent of designer T cells divided (CFSE dilution) in co-culture with KIT+ GIST882 cells data for two substances are collected here from patent publication US20150361150A1.

The target in this assay is tyrosine-protein kinase KIT on the surface of human KIT+ GIST cell lines (GIST 882, GIST 48) (human) (UniProt P10721). As to the kind of experiment: cell-based or functional assay.
UniProt P10721, sequence (P10721 26-976): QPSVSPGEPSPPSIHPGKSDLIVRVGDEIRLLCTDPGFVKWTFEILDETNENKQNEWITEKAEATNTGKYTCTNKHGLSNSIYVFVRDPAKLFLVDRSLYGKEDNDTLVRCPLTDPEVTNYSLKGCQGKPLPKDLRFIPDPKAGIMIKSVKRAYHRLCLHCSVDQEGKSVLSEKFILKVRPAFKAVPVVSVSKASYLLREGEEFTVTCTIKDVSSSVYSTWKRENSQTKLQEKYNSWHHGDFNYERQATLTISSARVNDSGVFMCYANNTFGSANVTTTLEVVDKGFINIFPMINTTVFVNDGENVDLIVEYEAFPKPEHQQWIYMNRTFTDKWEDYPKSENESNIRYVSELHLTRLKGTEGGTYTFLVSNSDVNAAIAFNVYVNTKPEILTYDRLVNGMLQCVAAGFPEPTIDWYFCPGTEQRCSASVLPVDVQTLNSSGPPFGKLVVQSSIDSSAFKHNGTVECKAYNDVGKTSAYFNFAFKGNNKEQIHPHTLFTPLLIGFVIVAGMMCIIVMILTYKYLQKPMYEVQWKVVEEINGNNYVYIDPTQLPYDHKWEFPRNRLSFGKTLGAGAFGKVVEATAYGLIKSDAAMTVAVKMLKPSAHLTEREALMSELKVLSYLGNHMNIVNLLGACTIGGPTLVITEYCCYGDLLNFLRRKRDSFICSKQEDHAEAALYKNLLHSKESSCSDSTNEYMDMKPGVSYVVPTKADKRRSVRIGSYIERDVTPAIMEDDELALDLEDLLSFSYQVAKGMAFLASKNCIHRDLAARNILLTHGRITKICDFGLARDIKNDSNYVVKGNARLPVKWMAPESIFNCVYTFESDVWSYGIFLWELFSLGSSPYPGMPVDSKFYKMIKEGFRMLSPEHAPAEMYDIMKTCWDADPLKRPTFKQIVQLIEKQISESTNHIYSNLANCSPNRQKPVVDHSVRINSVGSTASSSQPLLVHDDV

Turning to “2^nd generation anti-KIT chimeric immune receptor (extracellular domain of KIT ligand fused to CD28 and CD3 zeta), expressed on human designer T cells”, the percent of designer T cells divided (CFSE dilution) in co-culture with KIT+ GIST882 cells worked out at 47%.
The figure for “1^st generation anti-KIT chimeric immune receptor (extracellular domain of KIT ligand fused to the CD3 zeta chain), expressed on human designer T cells” is 39%.
